Data on 5 molecules can be found in patent US20180071366A1.

Numbered stars: 1 amine (or outer) side, 2 acyl side, 3 side chain; on linkers, the order of the positions; unused ones are H or OH. Bridge positions count the residues as written; N and C are the ends. Square brackets hold non-standard residues; d marks the D form. * marks the point of attachment. C20 diacid = O=C(O)CCCCCCCCCCCCCCCCCCC(=O)*; γGlu = O=C(O)[C@H](CCC(=O)[*:2])N[*:1]; Hyp = O=C(O)[C@@H]1C[C@@H](O)CN1; NMeI = CC[C@H](C)[C@H](NC)C(=O)O; Aad = N[C@@H](CCCC(=O)O)C(=O)O; Sar = CNCC(=O)O

For test [1], the target named is recombinant human amylin 3 receptor (hAMYR3) (human), P30988. Put plainly: cell-based or functional assay.
Chain of recombinant human amylin 3 receptor (hAMYR3) (human), P30988 (P30988 25-474, chain 1 of 2): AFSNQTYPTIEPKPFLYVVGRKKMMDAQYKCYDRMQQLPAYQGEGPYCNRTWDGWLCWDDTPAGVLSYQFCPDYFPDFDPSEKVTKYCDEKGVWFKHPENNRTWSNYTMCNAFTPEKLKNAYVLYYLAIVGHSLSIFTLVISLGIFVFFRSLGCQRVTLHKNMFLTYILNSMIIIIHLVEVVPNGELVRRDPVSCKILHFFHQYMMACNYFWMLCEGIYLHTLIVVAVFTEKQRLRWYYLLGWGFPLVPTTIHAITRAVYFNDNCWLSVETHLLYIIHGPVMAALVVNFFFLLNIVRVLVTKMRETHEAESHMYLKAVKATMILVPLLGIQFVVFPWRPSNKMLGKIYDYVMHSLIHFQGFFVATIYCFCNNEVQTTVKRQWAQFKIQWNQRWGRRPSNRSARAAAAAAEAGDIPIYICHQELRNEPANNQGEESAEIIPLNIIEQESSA
Chain of recombinant human amylin 3 receptor (hAMYR3) (human), P30988 (O60896 24-148, chain 2 of 2, further chain): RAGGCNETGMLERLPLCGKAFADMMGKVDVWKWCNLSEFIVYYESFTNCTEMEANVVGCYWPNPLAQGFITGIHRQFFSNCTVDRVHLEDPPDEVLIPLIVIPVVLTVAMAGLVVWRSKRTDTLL
Test [2] addresses recombinant human calcitonin receptor (hCT-R) (human), P30988. Put plainly: cell-based or functional assay.

Chain of recombinant human calcitonin receptor (hCT-R) (human), P30988 (P30988 25-474): as the sequence (P30988 25-474, chain 1 of 2) above

B1: Compound 35 (peptide)
peptide: {C20 diacid-γGlu}-RDGTATKATERLA[Aad]FLQRSSF[Sar]A[NMeI]LSSTEVGSNT[Hyp]-NH2
modifications: lactam 2-7
Turning to B1, the hAMYR3 EC50 [nM] (cAMP formation, 1321N1 cells expressing hAMYR3) in test [1] turned out to be 0.028 nM. In test [2], the hCT-R EC50 [nM] (cAMP formation, 1321N1 cells expressing hCT-R) is 0.066 nM.

B2: Compound 33 (peptide)
peptide: {C20 diacid-γGlu}-RDGTATKATERLA[Aad]FLQRANF[Sar]A[NMeI]LSSTEVGSNT[Hyp]-NH2
modifications: lactam 2-7
SMILES: CC[C@H](C)[C@@H](C(=O)N[C@@H](CC(C)C)C(=O)N[C@@H](CO)C(=O)N[C@@H](CO)C(=O)N[C@H](C(=O)N[C@@H](CCC(=O)O)C(=O)N[C@H](C(=O)NCC(=O)N[C@@H](CO)C(=O)N[C@@H](CC(N)=O)C(=O)N[C@H](C(=O)N1C[C@H](O)C[C@H]1C(N)=O)[C@@H](C)O)C(C)C)[C@@H](C)O)N(C)C(=O)[C@H](C)NC(=O)CN(C)C(=O)[C@H](Cc1ccccc1)NC(=O)[C@H](CC(N)=O)NC(=O)[C@H](C)NC(=O)[C@H](CCCNC(=N)N)NC(=O)[C@H](CCC(N)=O)NC(=O)[C@H](CC(C)C)NC(=O)[C@H](Cc1ccccc1)NC(=O)[C@H](CCCC(=O)O)NC(=O)[C@H](C)NC(=O)[C@H](CC(C)C)NC(=O)[C@H](CCCNC(=N)N)NC(=O)[C@H](CCC(=O)O)NC(=O)[C@@H](NC(=O)[C@H](C)NC(=O)[C@@H]1CCCCNC(=O)C[C@H](NC(=O)[C@H](CCCNC(=N)N)NC(=O)CC[C@H](NC(=O)CCCCCCCCCCCCCCCCCCC(=O)O)C(=O)O)C(=O)NCC(=O)N[C@@H]([C@@H](C)O)C(=O)N[C@@H](C)C(=O)N[C@@H]([C@@H](C)O)C(=O)N1)[C@@H](C)O
For the molecule B2, the hAMYR3 EC50 [nM] (cAMP formation, 1321N1 cells expressing hAMYR3) in test [1] turned out to be 0.009 nM. Also, the hCT-R EC50 [nM] (cAMP formation, 1321N1 cells expressing hCT-R) in test [2] came to 0.019 nM.

B3: Compound 34 (peptide)
peptide: {C20 diacid-γGlu}-RDGTATKATERLA[Aad]FLQRSSF[Sar]A[NMeI]PSSTEVGSNT[Hyp]-NH2
modifications: lactam 2-7
SMILES: CC[C@H](C)[C@@H](C(=O)N1CCC[C@H]1C(=O)N[C@@H](CO)C(=O)N[C@@H](CO)C(=O)N[C@H](C(=O)N[C@@H](CCC(=O)O)C(=O)N[C@H](C(=O)NCC(=O)N[C@@H](CO)C(=O)N[C@@H](CC(N)=O)C(=O)N[C@H](C(=O)N1C[C@H](O)C[C@H]1C(N)=O)[C@@H](C)O)C(C)C)[C@@H](C)O)N(C)C(=O)[C@H](C)NC(=O)CN(C)C(=O)[C@H](Cc1ccccc1)NC(=O)[C@H](CO)NC(=O)[C@H](CO)NC(=O)[C@H](CCCNC(=N)N)NC(=O)[C@H](CCC(N)=O)NC(=O)[C@H](CC(C)C)NC(=O)[C@H](Cc1ccccc1)NC(=O)[C@H](CCCC(=O)O)NC(=O)[C@H](C)NC(=O)[C@H](CC(C)C)NC(=O)[C@H](CCCNC(=N)N)NC(=O)[C@H](CCC(=O)O)NC(=O)[C@@H](NC(=O)[C@H](C)NC(=O)[C@@H]1CCCCNC(=O)C[C@H](NC(=O)[C@H](CCCNC(=N)N)NC(=O)CC[C@H](NC(=O)CCCCCCCCCCCCCCCCCCC(=O)O)C(=O)O)C(=O)NCC(=O)N[C@@H]([C@@H](C)O)C(=O)N[C@@H](C)C(=O)N[C@@H]([C@@H](C)O)C(=O)N1)[C@@H](C)O
B3: in test [1], the hAMYR3 EC50 [nM] (cAMP formation, 1321N1 cells expressing hAMYR3) worked out at 0.063 nM. Besides, in test [2], the hCT-R EC50 [nM] (cAMP formation, 1321N1 cells expressing hCT-R) was determined as 0.206 nM.

B4: Compound 31 (peptide)
peptide: {C20 diacid-γGlu}-RDGTATKATERLA[Aad]FLQRAAF[Sar]A[NMeI]LSSTEVGSNT[Hyp]-NH2
modifications: lactam 2-7
SMILES: CC[C@H](C)[C@@H](C(=O)N[C@@H](CC(C)C)C(=O)N[C@@H](CO)C(=O)N[C@@H](CO)C(=O)N[C@H](C(=O)N[C@@H](CCC(=O)O)C(=O)N[C@H](C(=O)NCC(=O)N[C@@H](CO)C(=O)N[C@@H](CC(N)=O)C(=O)N[C@H](C(=O)N1C[C@H](O)C[C@H]1C(N)=O)[C@@H](C)O)C(C)C)[C@@H](C)O)N(C)C(=O)[C@H](C)NC(=O)CN(C)C(=O)[C@H](Cc1ccccc1)NC(=O)[C@H](C)NC(=O)[C@H](C)NC(=O)[C@H](CCCNC(=N)N)NC(=O)[C@H](CCC(N)=O)NC(=O)[C@H](CC(C)C)NC(=O)[C@H](Cc1ccccc1)NC(=O)[C@H](CCCC(=O)O)NC(=O)[C@H](C)NC(=O)[C@H](CC(C)C)NC(=O)[C@H](CCCNC(=N)N)NC(=O)[C@H](CCC(=O)O)NC(=O)[C@@H](NC(=O)[C@H](C)NC(=O)[C@@H]1CCCCNC(=O)C[C@H](NC(=O)[C@H](CCCNC(=N)N)NC(=O)CC[C@H](NC(=O)CCCCCCCCCCCCCCCCCCC(=O)O)C(=O)O)C(=O)NCC(=O)N[C@@H]([C@@H](C)O)C(=O)N[C@@H](C)C(=O)N[C@@H]([C@@H](C)O)C(=O)N1)[C@@H](C)O
Take B4: the hAMYR3 EC50 [nM] (cAMP formation, 1321N1 cells expressing hAMYR3) in test [1] was determined as 0.066 nM. For the same molecule, the hCT-R EC50 [nM] (cAMP formation, 1321N1 cells expressing hCT-R) in test [2] turned out to be 0.227 nM.

B5: Compound 32 (peptide)
peptide: {C20 diacid-γGlu}-RDGTATKATERLA[Aad]FLQRGGF[Sar]A[NMeI]LSSTEVGSNT[Hyp]-NH2
modifications: lactam 2-7
SMILES: CC[C@H](C)[C@@H](C(=O)N[C@@H](CC(C)C)C(=O)N[C@@H](CO)C(=O)N[C@@H](CO)C(=O)N[C@H](C(=O)N[C@@H](CCC(=O)O)C(=O)N[C@H](C(=O)NCC(=O)N[C@@H](CO)C(=O)N[C@@H](CC(N)=O)C(=O)N[C@H](C(=O)N1C[C@H](O)C[C@H]1C(N)=O)[C@@H](C)O)C(C)C)[C@@H](C)O)N(C)C(=O)[C@H](C)NC(=O)CN(C)C(=O)[C@H](Cc1ccccc1)NC(=O)CNC(=O)CNC(=O)[C@H](CCCNC(=N)N)NC(=O)[C@H](CCC(N)=O)NC(=O)[C@H](CC(C)C)NC(=O)[C@H](Cc1ccccc1)NC(=O)[C@H](CCCC(=O)O)NC(=O)[C@H](C)NC(=O)[C@H](CC(C)C)NC(=O)[C@H](CCCNC(=N)N)NC(=O)[C@H](CCC(=O)O)NC(=O)[C@@H](NC(=O)[C@H](C)NC(=O)[C@@H]1CCCCNC(=O)C[C@H](NC(=O)[C@H](CCCNC(=N)N)NC(=O)CC[C@H](NC(=O)CCCCCCCCCCCCCCCCCCC(=O)O)C(=O)O)C(=O)NCC(=O)N[C@@H]([C@@H](C)O)C(=O)N[C@@H](C)C(=O)N[C@@H]([C@@H](C)O)C(=O)N1)[C@@H](C)O
B5: the hAMYR3 EC50 [nM] (cAMP formation, 1321N1 cells expressing hAMYR3) in test [1] is 0.005 nM. Besides, the hCT-R EC50 [nM] (cAMP formation, 1321N1 cells expressing hCT-R) in test [2] amounted to 0.006 nM.
